Laboratory results reported in patent US20170327597A1.

Target: Z-domain (an engineered analogue of the IgG-binding domain of protein A)
Test: isothermal titration calorimetry, Z-domain injected into IgG

## mmIgG2b-P307T-Q309L-K409R (antibody)
  fold tighter binding than mmIgG2b-F405L: 5 fold
